Tests used:
[1] = system: Fao cells; experiment: Insulin-induced Tyr phosphorylation of Myc-IRS-1 in adenovirus-infected Fao cells; format: cell-based, rat; details: 60 min insulin
Procedure: FIGS. 3a-b show Insulin-induced Tyr phosphorylation of IRS-1^7A in Fao cells. FIG. 3a—Fao cells were infected with Ad-Myc-IRS-1^WT or Ad-Myc-IRS-1^7A at 7×10^7 PFU/ml. Following 48 hours, the cells were starved in serum-free RPMI medium for 16 h and were then treated with insulin for the indicated times. Cell extracts were prepared and samples (1 mg) were subjected to immunoprecipitation (IP) with anti-Myc antibodies. Immunocomplexes were resolved on 7.5% SDS-PAGE and immunoblotted with anti-pY antibodies. In parallel, samples (100 μg) of total cell extracts were resolved on 7.5% SDS-PAGE and immunoblotted with anti-Myc antibodies. FIG. 3b—The bands corresponding to anti-pY/total Myc-IRS-1 were quantified by densitometry and are presented as a bar graph. Results are of a representative experiment carried out in duplicate.
FIGS. 11a-c show the effects of TPA and anisomycin on insulin-stimulated Tyr phosphorylation of IRS-1^WT, IRS-1^7A and IRS-1^408A. Fao cells were infected with Adeno-myc-IRS-1 wild type (WT); the 7A mutant; or the S408A mutant at a titer of 4-6×10^7 PFU/ml. Following 48 hours the cells were deprived of serum for 16 h, and were then treated for 60 min with 200 nM TPA (FIG. 11a), or 50 ng/ml anisomycin (FIG. 11b), followed by treatment with 100 nM insulin for the indicated times. […]

[2] = system: Fao cells; experiment: Effect of inducers of insulin resistance on insulin-stimulated Tyr phosphorylation of IRS-1 in Fao cells; format: cell-based, rat
Procedure: FIGS. 5a-c show the effects of TPA and anisomycin on insulin-induced Tyr phosphorylation of IRS-1^7A in Fao cells. Fao cells were infected with Ad-Myc-IRS-1^WT or Ad-Myc-IRS-1^7A at 7×10^7 PFU/ml. Following 48 hours the cells were deprived of serum for 16 h, and were then treated for 60 min with 200 nM TPA (FIG. 5a); 50 ng/ml of anisomycin (FIG. 5b) or 1 μg/ml of anisomycin (FIG. 5c). This was followed by treatment with 100 nM insulin for 2 min (FIG. 5a) or for the indicated times (FIGS. 5b-c). Cell extracts were prepared, and samples (1 mg) were subjected to immunoprecipitation (IP) with anti-Myc antibodies (FIG. 5a). Immunocomplexes were resolved on 7.5 SDS-PAGE and were immunoblotted with the indicated antibodies. Alternatively, total cell extracts (FIGS. 5b-c) were resolved on 7.5% SDS-PAGE and immunoblotted with the indicated antibodies. Results of a representative of four experiments are presented. The results of two independent experiments done in duplicates were quantified (FIG. 5a, right panel).
FIGS. 6a-b show the dose dependent effect of Palmitic acid on Insulin-induced Tyr phosphorylation of IRS-1 mutants in Fao cells. Fao cells were infected with Ad-Myc-IRS-1^WT or Ad-Myc-IRS-1^7A at 7×10^7 PFU/ml. Following 24 hours the cells were deprived of serum for 12 h, and were then further incubated for 12 h with or without the indicated concentrations of palmitic acid in serum free medium prior to being stimulated with 100 nM insulin for the indicated times. Cell extracts (100 μg) were resolved on 7.5% SDS-PAGE and immunoblotted with anti-PY and anti-Myc antibodies. The results of two independent experiments done in duplicates were quantified.
FIGS. 11a-c show the effects of TPA and anisomycin on insulin-stimulated Tyr phosphorylation of IRS-1^WT, IRS-1^7A and IRS-1^408A. Fao cells were infected with Adeno-myc-IRS-1 wild type (WT); the 7A mutant; or the S408A mutant at a titer of 4-6×10^7 PFU/ml. Following 48 hours the cells were deprived of serum for 16 h, and were then treated for 60 min with 200 nM TPA (FIG. 11a), or 50 ng/ml anisomycin (FIG. 11b), followed by treatment with 100 nM insulin for the indicated times. Cell extracts were prepared, samples (1 mg) were subjected to immunoprecipitation (IP) with anti-Myc antibodies. Immunocomplexes were resolved on 7.5% SDS-PAGE and immunoblotted with anti-PY or anti IRS-1 antibodies.
Infection of Fao cells with adenovirus—Fao cells were grown in RPMI medium containing 10% FCS. At 70% confluence cells were infected with adenoviruses harboring the gene of interest at a titer of 7 10^7 PFU/ml. After incubation for 2 h hours at 37° C., the virus-containing medium was diluted 1:5 in fresh RPMI medium. After 24 h the medium was replaced with a fresh RPMI medium containing 10% FCS. […]

B1: IRS-1^408A: mouse IRS-1 with Ser408 mutated to Ala (protein)
chain: MEQKLISEEDLNMASPPPDTDGFSDVRKVGYLRKPKSMHKRFFVLRAASEAGGPARLEYYENEKKWRHKSSAPKRSIPLESCFNINKRADSKNKHLVALYTRDEHFAIAADSEAEQDSWYQALLQLHNRAKAHHDGAGGGCGGSCSGSSGVGEAGEDLSYDTGPGPAFKEVWQVILKPKGLGQTKNLIGIYRLCLTSKTISFVKLNSEAAAVVLQLMNIRRCGHSENFFFIEVGRSAVTGPGEFWMQVDDSVVAQNMHETILEAMRAMSDEFRPRSKSQSSSSCSNPISVPLRRHHLNNPPPSQVGLTRRSRTESITATSPASMVGGKPGSFRVRASSDGEGTMSRPASVDGSPVSPSTNRTHAHRHRGSSRLHPPLNHSRSIPMPSSRCSPSATSPVSLSSSSTSGHGSTSDCLFPRRSAASVSGSPSDGGFISSDEYGSSPCDFRSSFRSVTPDSLGHTPPARGEEELSNYICMGGKGASTLAAPNGHYILSRGGNGHRYIPGANLGTSPALPGDEAAGAADLDNRFRKRTHSAGTSPTISHQKTPSQSSVASIEEYTEMMPAAYPPGGGSGGRLPGYRHSAFVPTHSYPEEGLEMHHLERRGGHHRPDTSNLHTDDGYMPMSPGVAPVPSNRKGNGDYMPMSPKSVSAPQQIINPIRRHPQRVDPNGYMMMSPSGSCSPDIGGGSSSSSSISAAPSGSSYGKPWTNGVGGHHTHALPHAKPPVESGGGKLLPCTGDYMNMSPVGDSNTSSPSECYYGPEDPQHKPVLSYYSLPRSFKHTQRPGEPEEGARHQHLRLSSSSGRLRYTATAEDSSSSTSSDSLGGGYCGARPESSLTHPHHHVLQPHLPRKVDTAAQTNSRLARPTRLSLGDPKASTLPRVREQQQQQQSSLHPPEPKSPGEYVNIEFGSGQPGYLAGPATSRSSPSVRCPPQLHPAPREETGSEEYMNMDLGPGRRATWQESGGVELGRIGPAPPGSATVCRPTRSVPNSRGDYMTMQIGCPRQSYVDTSPVAPVSYADMRTGIAAEKASLPRPTGAAPPPSSTASSSASVTPQGATAEQATHSSLLGGPQGPGGMSAFTRVNLSPNHNQSAKVIRADTQGCRRRHSSETFSAPTRAGNTVPFGAGAAVGGSGGGGGGGSEDVKRHSSASFENVWLRPGDLGGVSKESAPVCGAAGGLEKSLNYIDLDLAKEHSQDCPSQQQSLPPPPPHQPLGSNEGNSPRRSSEDLSNYASISFQKQPEDRQ
[1]
  Tyr phosphorylation level after prolonged insulin treatment (Example 9): reduced to a similar extent
[2]; 50 ng/ml anisomycin 60 min
  protection against the inhibitory effects of anisomycin: could not protect
[2]; 200 nM TPA 60 min
  protection from the inhibitory effects of TPA on insulin-stimulated Tyr phosphorylation: partially prevented

Reference: US20110104167A1, “Compositions and Methods for Diagnosing and Treating Insulin Resistance” (YEDA RESEARCH AND DEVELOPMENT CO. LTD., priority 2004, published 2011)
